For this experiment, the target named is PDGF-A (PDGF dimer composed of two A chains).

Some results are limits rather than exact numbers.

In turn, “Platelet Derived Growth Factor-Associated Protein (PAP), rat, recombinant, expressed in bacteria” had a 3T3 cell mitogenicity assay (tritiated thymidine incorporation) in the presence and absence of PDGF of over 2 fold.

The values are drawn from patent US5504197.
